Measured values: US20040253646A1, “Pre-mrna splicing screening assay” (priority 2001, published 2004)

Biological target: T1, CDC5L/PLRG1 interaction in HeLa nuclear extract (Homo sapiens, UniProt O43660+Q99459)
T1 construct: wild type CDC5L immunoprecipitated from the extract using a peptide anti-CDC5L antibody; endogenous in cells; host or cells: HeLa nuclear extract
Assay: disruption of CDC5L/PLRG1 interaction in HeLa nuclear extract (co-immunoprecipitation with anti-CDC5L)
Format: binding
Method: (A) ΔCDC5Lh or ΔPLRG1f (approximately 1 nmole) was added to approximately 100 μg of HeLa nuclear extract followed by immunoprecipitation using about 15-20 μg rabbit anti-CDC5L antibodies. The immunoprecipitates were subsequently probed with sheep polyclonal anti-CDC5L and anti-PLRG1 antibodies. Lane 1 contained nuclear extract alone. […] Lanes 4 and 5 contained negative control immunoprecipitation reactions using antibodies to HCF (a nuclear protein) and rabbit pre-immune IgG. The panels labelled i and ii were probed with anti-CDC5L and anti-PLRG1 antibodies respectively. The arrows on the right of the figure indicate the protein bands.
Immunoprecipitations of the spliceosomal proteins from nuclear extract were done using affinity purified peptide antibodies. 50 μl of nuclear extract (4-5 mg/ml) were pre-cleared for 1 hr at 4° C. on 25 μl of settled protein G or A sepharose (Pharmacia) or protein G/A agarose beads (Boehringer) that had been pre-incubated with 10 μg of sheep pre-immune IgG. The pre-cleared nuclear extract was diluted 10 times (except in immunodepletion experiments) with PBS buffer containing 0.5% Triton X-100 before adding to protein-G sepharose or agarose beads (25 μl) that had been pre-incubated with 30 pmoles of antibody for 1 hr at 4° C. Immunoprecipitations were carried out at 4° C. for 2-16 hrs. The immunoprecipitates were washed three times at 4° C. with 1 ml PBS containing 0.5% Triton X-100. Protein-G beads carrying the immune complexes were collected after each wash by centrifugation at 1500 g for 1 min. For immunodepletion experiments a higher amount of antibody (0.33 nmole/250 μg) of HeLa nuclear extract were used during the immunoprecipitation step.
SDS PAGE gel analysis was done as described previously (Laemmli, 1970). […] Protein bands were detected by developing blots with the ECL kit (Amersham) according to the manufacturer's instructions or using NBT (60 μl of a 30 mg/ml solution)/BCIP (60 μl of a 25 mg/ml solution) in 10 ml of alkaline phosphatase buffer (0.1M NaHCO3, 1 mM MgCl2, pH 9.8) for colorimetric detection on the membrane. […]

T1 sequence (Q99459 whole entry): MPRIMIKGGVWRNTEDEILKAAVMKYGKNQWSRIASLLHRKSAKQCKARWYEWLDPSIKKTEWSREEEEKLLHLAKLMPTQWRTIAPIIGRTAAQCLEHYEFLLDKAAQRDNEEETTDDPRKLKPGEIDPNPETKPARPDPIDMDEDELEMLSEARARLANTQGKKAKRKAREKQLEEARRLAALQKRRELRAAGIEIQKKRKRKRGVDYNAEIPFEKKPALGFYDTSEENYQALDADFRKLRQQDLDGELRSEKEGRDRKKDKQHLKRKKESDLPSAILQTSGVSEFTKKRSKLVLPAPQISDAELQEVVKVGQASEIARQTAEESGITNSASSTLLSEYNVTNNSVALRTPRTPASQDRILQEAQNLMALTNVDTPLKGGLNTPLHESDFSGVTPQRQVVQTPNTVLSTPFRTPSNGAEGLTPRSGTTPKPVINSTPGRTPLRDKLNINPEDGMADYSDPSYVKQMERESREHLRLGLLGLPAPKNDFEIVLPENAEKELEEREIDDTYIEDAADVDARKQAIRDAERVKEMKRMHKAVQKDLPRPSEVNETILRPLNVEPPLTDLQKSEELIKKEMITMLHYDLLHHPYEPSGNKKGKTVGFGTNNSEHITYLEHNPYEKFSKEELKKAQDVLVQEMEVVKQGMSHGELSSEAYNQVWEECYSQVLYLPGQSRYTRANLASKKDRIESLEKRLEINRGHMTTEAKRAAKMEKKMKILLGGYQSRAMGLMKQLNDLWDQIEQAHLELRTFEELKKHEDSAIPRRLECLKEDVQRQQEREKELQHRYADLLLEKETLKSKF
T1 sequence (O43660 whole entry): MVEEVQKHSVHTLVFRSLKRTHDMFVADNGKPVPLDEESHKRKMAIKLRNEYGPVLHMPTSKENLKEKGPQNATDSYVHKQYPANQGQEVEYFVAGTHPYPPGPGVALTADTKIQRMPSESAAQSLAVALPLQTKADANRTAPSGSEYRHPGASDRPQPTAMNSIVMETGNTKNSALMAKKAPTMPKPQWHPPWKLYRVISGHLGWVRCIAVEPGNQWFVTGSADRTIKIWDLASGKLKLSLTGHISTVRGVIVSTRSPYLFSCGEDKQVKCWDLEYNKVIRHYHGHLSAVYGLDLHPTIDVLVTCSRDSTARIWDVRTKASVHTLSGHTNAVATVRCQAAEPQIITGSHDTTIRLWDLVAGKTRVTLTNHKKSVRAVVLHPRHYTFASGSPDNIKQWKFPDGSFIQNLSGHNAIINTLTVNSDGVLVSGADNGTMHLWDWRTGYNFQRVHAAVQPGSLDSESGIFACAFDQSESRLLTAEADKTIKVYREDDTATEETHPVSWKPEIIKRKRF

B1: ΔCDC5Lh: CDC5L carboxyl terminal mutant protein from region h, amino acids 602-800, expressed in E. coli (protein, UniProt Q99459 602-800, looked up, fragment)
chain: TVGFGTNNSEHITYLEHNPYEKFSKEELKKAQDVLVQEMEVVKQGMSHGELSSEAYNQVWEECYSQVLYLPGQSRYTRANLASKKDRIESLEKRLEINRGHMTTEAKRAAKMEKKMKILLGGYQSRAMGLMKQLNDLWDQIEQAHLELRTFEELKKHEDSAIPRRLECLKEDVQRQQEREKELQHRYADLLLEKETLKS
disruption of CDC5L/PLRG1 interaction (co-immunoprecipitation of PLRG1 by anti-CDC5L antibodies) (approximately 1 nmole added to approximately 100 μg HeLa nuclear extract, FIG. 7A): will disrupt the CDC5L/PLRG1 interaction
disruption of CDC5L/PLRG1 complex when pre-incubated with ΔPLRG1f (ΔCDC5Lh pre-incubated with ΔPLRG1f, FIG. 7Aii lane 7): is blocked
